Biological target: the molecule itself
Assay: crystal structure

B1: SrpA sialoglycan binding region (SrpABR), tag cleaved, as crystallised (domain or fragment)
chain: RRATDTTPPTITVPSDIIAYRGEEFEFYFEITDDSGQVKNIELSTFGKPLGLNWLEYSEDNFNVPGNATSDNPLRVRVHGTVPLNEPIPADKNRAQFTRTIRAWDAAGNVSSNITFVIKYRAQTDKYNPADPTITYVDRLSSLSPSEKNAVEAAVRAANPQIPAAARITVSANGTVTITYPDSSTDTITANRVVKDLASSR
stoichiometry N: 2

From article PMC5388602 (Biochemistry, 2016)
